Data taken from patent US8257714B2, “Compositions and methods for immunotherapy of cancer and infectious diseases” (priority 2003, dated 2012).
Marks after values point to notes of the source that are not given here.

Columns and labels:
[1] = Stability of E1 in human serum albumin; format: physicochemical; conditions: for loss of activity: in the presence of HSA
Description: Higher temperature studies also indicate remarkable stability.

[2] = system: influenza virus A/NWS/33 (HINI); assay: Influenza infection in mice; format: in vivo, BALB/c mice; conditions: for Mean Day to Death ± SD: mice dying before day 21; for decline in arterial oxygen saturation: days 3-11
Description: Specific pathogen-free female BALB/c mice were infected intranasally with an LD90 dose of influenza virus A/NWS/33 (HINI). […] Placebo treated mice received bovine serum albumin in phosphate-buffered saline. Mice were observed daily for death.

[3] = Experimental autoimmune encephalomyelitis (EAE) model; format: in vivo, SJL mice
Description: Treatments were given daily for 5 days. Linomide is a drug that is known to inhibit EAE and is used as a positive control. […] Severity of EAE is measured by means of the EAE score which starts at […] and increases to a score of 5 when death occurs. For ethical reasons mice are sacrificed when a score of 4 is reached.

[4] = system: Mycobacterium tuberculosis Erdman strain; assay: Tuberculosis in mice; format: in vivo; conditions: 0.1, 1.0 or 10.0 ng i.p. days 1-5; day 0, 21 and 42
Description: Groups of mice were exposed to Mycobacterium tuberculosis Erdman strain (M.tb) by inhalation on day 0. […] A control group of mice received vehicle only. On day 0, 21 and 42 the colony forming units (cfu) of M.tb in the lung were determined.

[5] = 100 ng/day i.p., schedule 0, 3, 6
[6] = 100 ng/day i.p., schedule −2, 0, 3, 6
[7] = 1,000 ng/day i.p., schedule 0, 3, 6

B1: ARP E1: recombinant E. tenella ARP from E. coli clone E1 (ATCC PTA-6120), SEQ ID NO:28 (protein, listed as Eimeria tenella)
chain: MGEEADTQAWDTSVREWLVDTGRVFAGGVASIADGCRLFGAAVEGEGNAWEELVKTNYQIEVPQEDGTSISVDCDEAETLRAVVDGRAPNGVYIGGTKYKLAEVKRDFTFNDQNYDVAILGKNKGGGFLIKTPNENVVIALYDEEKEQNKADALTTALNFAEYLYQGGF
For B1, the loss in activity ([1]; 1 μg/mL, HSA 1, 5 or 10% w/v, 4° C., 4, 11, 25, 39 and 54 days, preliminary) was “no loss in activity”, the “storage time without loss of activity (DC assay)” value ([1]; 1 μg/ml with 3% HSA, 4° C.) was “at least 55 weeks” and the loss of activity ([1]; 2 hours 70° C.) was “No loss of activity”. For the same molecule, the loss of activity ([1]; 6 hours at 55° C.) was “No loss of activity”, the loss of activity ([1]; 41 days at 37° C.) was “No loss of activity” and the Survive/Total [2, 5] was 2/10. The “Mean Day to Death ± SD” value [2, 5] was 12.1 ± 1.6 days, the Survive/Total [2, 6] was 0/10 and the “Mean Day to Death ± SD” value [2, 6] was 12.3 ± 1.2 days. The “decline in arterial oxygen saturation” value ([2]; 1,000 ng) was “statistically significant reduction”, the Survive/Total [2, 7] was 3/10 and the “Mean Day to Death ± SD” value [2, 7] was 12.7 ± 2.7 days. The “decline in arterial oxygen saturation” value ([2]; 10,000 ng) was “statistically significant reduction”, the Survive/Total ([2]; 10,000 ng/day i.p., schedule 0, 3, 6, P < 0.05) was 5/10* and the “Mean Day to Death ± SD” value ([2]; 10,000 ng/day i.p., schedule 0, 3, 6) was 12.0 ± 1.4 days. For the same molecule, the “Day 15 EAE Score ± SD” value ([3]; 0.1 μg i.p. daily for 5 days from day 10) was 2.7 ± 1.3, the “Day 15 EAE Score ± SD” value ([3]; 1.0 μg i.p. daily for 5 days from day 10) was 1.5 ± 1.6 and the “Day 15 EAE Score ± SD” value ([3]; 10.0 μg i.p. daily for 5 days from day 10) was 1.1 ± 1.5. The “cfu of M.tb in the lung versus control group” value [4] was “no statistically significant difference”.
